Measured values published in publication PMC13328618, “Heritable immunization of mice against Lyme disease enables ecological disease prevention” (Nature Communications, 2026).

Legend:
[1] = biological target: recombinant outer surface protein A (rOspA) of Borrelia burgdorferi (Borrelia burgdorferi) (UniProt P0CL66)
[2] = biological target: T1, biotinylated OspA protein (Borrelia burgdorferi, UniProt P0CL66, biotin (site not stated)); assay: BLI; Octet Red96; biotinylated OspA immobilised on streptavidin biosensors; antibody 3.7-300 nM, 180 s association, 600 s dissociation in PBST with 0.1% bovine serum albumin; global fitting; settings: both partners purified
T1 construct: outer surface protein A (OspA), Borrelia burgdorferi; biotinylated for capture on streptavidin biosensors; May be the GenScript rOspA after biotinylation; also called biotinylated OspA proteins
T1 sequence (P0CL66 17-273): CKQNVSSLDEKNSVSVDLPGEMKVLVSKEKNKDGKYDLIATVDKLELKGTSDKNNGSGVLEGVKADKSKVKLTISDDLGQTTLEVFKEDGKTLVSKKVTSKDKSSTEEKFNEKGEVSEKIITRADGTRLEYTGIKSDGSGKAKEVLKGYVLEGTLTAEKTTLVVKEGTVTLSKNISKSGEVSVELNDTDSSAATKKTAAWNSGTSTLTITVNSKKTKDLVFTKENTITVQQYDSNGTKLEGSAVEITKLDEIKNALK

[3] = biological target: T2, recombinant outer surface protein A (rOspA) of Borrelia burgdorferi (Borrelia burgdorferi, UniProt P0CL66); assay: ELISA; plates coated with 5 µg/mL rOspA; supernatants of transfected Lenti-X 293T cells 72 h after transfection; detection with mouse IgG2b ELISA kit; settings: one partner purified
T2 construct: outer surface protein A (OspA), Borrelia burgdorferi; recombinant; source: produced by GenScript
T2 sequence (P0CL66 17-273): as above

[4] = biological target: T2, recombinant outer surface protein A …; assay: ELISA; plates coated with rOspA at 5 µg/mL; mouse serum applied; detection with IgG ELISA detection kit; purified LA-2 IgG2a as standard; settings: one partner purified

Sequence of recombinant outer surface protein A (rOspA) of Borrelia burgdorferi (Borrelia burgdorferi) (P0CL66 17-273): as above

With “LA-2 scFv-albumin fusion protein expressed in Rosa26-targeted mice” as the molecule, how does the xenodiagnosis: engineered (heterozygous) mice free of infection, by spirochetes in larval ticks fed 21 days after challenge with 10 B. burgdorferi-infected nymphs [1] read?
Its xenodiagnosis: engineered (heterozygous) mice free of infection, by spirochetes in larval ticks fed 21 days after challenge with 10 B. burgdorferi-infected nymphs is 80%.

B1: full-length LA-2 IgG2a (antibody, V domains shown)
VH: QIQLVQSGPELKKPGETVKISCKASGYTFTDYSMYWVKQAPGKGLKRMGWINTETGEPTYADDFKGRFALSLDTSASTAYLHISNLKNEDTATYFCARGLDSWGQGTSVTVSS
VL: DIQMTQSPSSLSATLGGKVTITCKASQDINKYIAWYQHKPGKGPRLLIHYTSTLQPGNPSRFSGSGSGRDYSFSISNLEAEDIAIYYCLQYDNLQRTFGGGTKVEIK
notes: LA-2 heavy-chain variable region; mouse IgG2a heavy-chain constant region; LA-2 light-chain variable region; light-chain constant region; IgG2a; plasmid constructed by GenScript; source: Expi293F, transfected, purified (Protein A-Sepharose 4B)
Does B1 bind [2]?
Result: binds

B2: LA-2 scFv-Fc with the top-performing linker … (Fc fusion)
VH: QIQLVQSGPELKKPGETVKISCKASGYTFTDYSMYWVKQAPGKGLKRMGWINTETGEPTYADDFKGRFALSLDTSASTAYLHISNLKNEDTATYFCARGLDSWGQGTSVTVSS
VL: DIQMTQSPSSLSATLGGKVTITCKASQDINKYIAWYQHKPGKGPRLLIHYTSTLQPGNPSRFSGSGSGRDYSFSISNLEAEDIAIYYCLQYDNLQRTFGGGTKVEIK
notes: LA-2 heavy-chain variable region, as the VH of m3; linker between the heavy and light variable regions; LA-2 light-chain variable region, as the VL of m3; source: Lenti-X 293T, transfected (PEI), in supernatant
Does B2 bind [3]?
Result: binds

B3: full-length LA-2 monoclonal antibody expressed in liver-specific knock-in mice (antibody, V domains shown)
VH: QIQLVQSGPELKKPGETVKISCKASGYTFTDYSMYWVKQAPGKGLKRMGWINTETGEPTYADDFKGRFALSLDTSASTAYLHISNLKNEDTATYFCARGLDSWGQGTSVTVSS
VL: DIQMTQSPSSLSATLGGKVTITCKASQDINKYIAWYQHKPGKGPRLLIHYTSTLQPGNPSRFSGSGSGRDYSFSISNLEAEDIAIYYCLQYDNLQRTFGGGTKVEIK
notes: LA-2 heavy-chain variable region, as the VH of m3; mouse IgG2a heavy-chain constant region; LA-2 light-chain variable region, as the VL of m3; light-chain constant region; Heavy and light chains are made from one transcript with a T2A element between them; residues of T2A may remain on the chains; also called LA-2 antibodies; source: transgenic Mus musculus (knock-in proximal to the albumin …)
Does B3 bind [4]?
Result: binds

B4: LA-2 scFv-Fc with Vh-(G4S)3-Vl linker (Fc fusion)
VH: QIQLVQSGPELKKPGETVKISCKASGYTFTDYSMYWVKQAPGKGLKRMGWINTETGEPTYADDFKGRFALSLDTSASTAYLHISNLKNEDTATYFCARGLDSWGQGTSVTVSS
VL: DIQMTQSPSSLSATLGGKVTITCKASQDINKYIAWYQHKPGKGPRLLIHYTSTLQPGNPSRFSGSGSGRDYSFSISNLEAEDIAIYYCLQYDNLQRTFGGGTKVEIK
notes: LA-2 heavy-chain variable region, as the VH of m3; flexible (G4S)3 linker, printed as (G4S)3; LA-2 light-chain variable region, as the VL of m3; Cloned into a modified pcDNA3.4 vector; also called scFv with a Vh-(G4S)3-Vl linker; source: Expi293F, transfected, purified (Protein A-Sepharose 4B)
Does B4 bind [2]?
Result: binds
